# Test results published in the DeepSol protein solubility set.
# Assay: soluble on expression in E. coli; label from the status in PepcDB or PDB records
row,Sequence,soluble on expression in E. coli
1,MAHHHHHHMGIYSDTDDDSPIGIEVVGEASSDSEEPNPHSTTKRKVSGAVDHNNGYNQKKNKRRRLKNKWEENPQLHETPDEEQISNVKKRVYVLDTCSIVEHIEWSILEEVAKYYLIIIPKKVMDELGKMEGGRGSTCNRVLNKLENEHTSNKMNVGFRLQRKNDKDKNVLSAARVNDDHILSCACSFRNEHDVVLVTSDNILKLKAYAEGIPTVSTLKDVTRLTNGLRGGKFE,not soluble
2,MIDTNLLRVTVCDEGELEKSTTHFIGSRKIEPEQWITWASECKYLPESDAVALCATLIDRLSLEANVVPVSSPVTICGDIHGQFYDLLELFKTGGTVPNTKYVFMGDYVDRGHYSLETVTLLFCLLLKYPNQITLLRGNHESRRISNVYGFYDECQNKYGHGNVHKWFCKVFDVLPIGALIDESVLCVHGGLSPDIRTIDSLMLLDRAQEVPNKGPLCDIMWSDPDDDVEDWVISQRGAGFVFGAKVTEEFLMNNDLSLLCRSHQLVDEGFKYMFNEKLATVWSAPNYCYRCGNAAAVFEIDGNNRSTKYFNAVPDGSREKPDRVVAPYFL,not soluble
3,MSLQHACIFLELLKITYIHCMKRLLSLYLVLSGFLLHAQTVKELKTVASSFSEMAKIPAGSFLKHEYSFLNIQPTKQDTNLLFCIHPEATITKVTTSFYISTHEVTNAEYRQFIVWVTDSLIKNNITFDTVFYRYTTPSGKSTRISIVPDTMNRVLRDMFGYCNLNYYTHKEFISFPTTNISWHQAQAYIHWLNNRMLELLKKNHVPTTDWGKYRLPEALEWEYAAMIVEKNGDWFNQRNPDAYNIYGWLDYPLTTKEGLYKANFGLIRDLNHMVIKARWDDNYDALAPVKKYVPSLMGLYDLSGNVSEWTNTSISLDSLNKFYAGYYSNLLQTKYQHLFEELLKPAPDWKKFDAFKAESVRGRYDAQAQQYWFNEYVIRVKEMENYNRSILSRISDGMLVKGGSWDNPPVYMINTCSQVLSKNFTTPQTGFRVALTLEPAFEKLLGSYLTGEGHHHHHH,not soluble
4,YHTEKTLPERTNEAAMSAAVVRGKLVWEQNNCVGCHTLLGEGAYFAPELGNVVGRRGGEEGFNTFLQAWMNIQPLNVPGRRAMPQFHLSEGQVDDLAEFLKWSSKIDTNQWPPNKEG,not soluble
5,MSLAESQLSKLDVNLQSLNPYTFSKTRCIVNLHISDDTKNRDPSTTNGSYSNSQLLSNGEHVCYHFSQDYCVLSIYPVTDAITGKTVVVHLPHETFNDHHTFTMAEEDGCIVMDLILKTGLFLTLRFSLEYLFNRNADINSSWYSLLKPYDFTVRLPDYLYKVNSALSIVYLNDGGLLGLQKTQTSGSDEYDLHPVLFNDNSYFQSFTRFFSHNDSGRENVVSSVSYGDYHLLTLTENCKLRIWDLRTNSVTAQLNLITDPQDKHRKYESIGPYLALLDSVLVVFLPFGNGAFRTFQLSVNNSGGLVLTPRGELIRTNLSTASIWSLVDTKLTKPFELNIETSYLQMVVLWKSNTSIKLQILNFETEALDKHSWVEASNKSLPDILDNDILGDNFEQSLLDLKAHYTPAIYEEAQRILSANGEGHHHHHH,not soluble
6,QVEFYFSEFNFPYDRFLRTTAEKNDGWVPISTIATFNRMKKYRPVDKVIEALRSSEILEVSADGENVKRRVPLDLTAARNARIEQNQRTLAVMNFPHEDVEASQIPELQENLEAFFKKLGEINQVRLRRDHRNKKFNGTVLVEFKTIPECEAFLKSYSNDDESNEILSYEGKKLSVLT,not soluble
7,MKELVEIAVPENLVGAILGKGGKTLVEYQELTGARIQISKKGEFLPGTRNRRVTITGSPAATQAAQYLISQRVTYEQGVRASNPQKV,soluble
8,REVYVLVIGETARACNFGLYGYERNTTPLLDKMEGVVTFTDVLTQSNTTHKSVPMLLSAASAEDYDCLYRQKGIITAFKEAGFHTAFFSNQLPNHSFIDFLGMEADDWKFIKKDAPKGANISDDELLFLVEKELKAGHQKLFIVLHAYGSHFNYKERYPESMSVFKPDNLTDAKYENKEYLMNAYDNTIRYTDGFLASLITLLQKTNSFSAMLYTSDHGEDIFDDNRKLFLHASPVPSYYQLHVPFLIWLSKTYREKNVEVHEAILQNREKPVAGNASVFHTMLNLAGVQTPYRADSLSVAN,not soluble
9,MGSDKIHHHHHHMSKVFSPFQFDNSFVRSMEGFFEPWQGARVPAPAMVCFNQQLADELGMDADAMEDSRLAAFFCGMLTAEGSEPVAMAYAGHQFGGFSPRLGDGRALLLGEVKDIHGRRRDLHLKGSGRTNFSRGGDGKAVLGPVLREYLMGEAMHALGIPTTRALAAVTTGEDIYRDGIKPGAVLARVASSHIRVGTFEYAAARGDHEGLRELVNYSLKRHYPELEDEQTPALALLNSVSRAQAKLVAKWMGVGFIHGVMNTDNVTISGETIDYGPCAFMDTYDARTVFSSIDHEGRYAYGNQPGIARWNLARFAEALLPLLAEDESEALAHAQTVLDGFAEVYTNEWLAVFAAKFGLKTAQDGDLELFMDFLTLLGELKLDFTRSFRALANSLGDTAAAGIEALTADSARFAPWLTRWHERLGREYASQSDFASDARALMQGVNPVYIPRNHLLQGALDSAEAGDMAPFERLLEVVCRPYEELAGYGAYALGAPEDFGPFRTFCGT,not soluble
10,MGSDKIHHHHHHMKFIVKTQMDMEAVAGNYIREVLPNAKVTIAPEGYPGIVIVESEEENALQKILEVPEVEKVYPVLIEVPANLDSIKSAADEIVKYIKEGETFAVRTKKRGKRDFSSVDVNVVLGARIKDLTNAEVNLSYPDKVVQVEIIGEKAYISVIPGKEYTKWKKYPKDKPDCRKLFRKLTIVQMPYWGDYKTARAFGEKIGRAAQAFEVKELIIAPKEKMNAYELMAFIRGVKEGQESRYQIQKEAYPWEVEKVPVTVWDLYQVIRDKRRNRRLIIITDPKGPTLNEVKDKLARDMYYAKEIIIFIGSREGIPIGLFRFADYVVDLAPYMTFATEHGIPATLVALWTIYEEELRRRGEIND,not soluble
11,MPLKGFEIIKSMITLLFLYQAIIRNFEEIVQFLGKIMGCGSSSPAEVAPAEIIEPSPSSDVPSDPKIPTSYRPSIISLQIPNEFGDDVSSDALSDRSDAQEENVDYLYATDVTLQWLLERIYDKFKKPIPEDPQWIIERLNRPSWDLDYATSSVVRVTFGWDDDELPRSVVLKTPVAKDQRDDEEGKYHYIMFKRECNVYEWTQKFPKLIAPKIIHIKKHSKEGSGVVVMEDVSEKGQEQDPVKGLMLEVVRDLLKQIAYLHSISLKHTSWSTLVADLPPSYYAHTIGSFDDTLTFFERQDVDHSRFVHIGKYFSDEYLHSTATETTELLDIPKVLVHGEPYASNVFTKMEGKEQRILSLIDWTEGHSGCFAEDVAKIICWNLNAKERVDNTSSLLEGYHFHLARYYDGDCPFTVDIIQRAYEVFVPFAMVSLCGKVMSVKNKTEKEPLIERAKSLIQQVYAMERLNES,not soluble
12,MKRARSANIPGAILHSLAELQDGLNAMIDPSWRAVRSLDNWALAITMESTELLDSYPWKWWKNLNATPDLANVRIELVDIFHFSLSGAMQMRSTPDDEIPAASLKPLKEVMTTFLPAKECTSDPYGFVFFPLTDTQNAIASFRNIIQLANAYRFDVIIECIIYAAEDLGFNLVAYYIAKHTLNCIRQLSGYKDGSYVKVNNGVEDNSLLHNCIKDVSLDEVLDADKYVQAWNSIMANVYEAFQIKESDRKDAERWFALAKENRLAIKA,soluble
13,MSLEVIKHDGPGRLGVIRLEPPVQTPALAGVDFTLSPFNSFFYPKDYKEYDFNLAPAIPLSYYTPDEIIKKAVKRLWEVDYSKFNAFYFPALKRTKHYEELFKIIEENDFDAIYIGNSKSMIKDYRGFVFTMRELREKFPNAVLITDLEPFFYPLAVYLGIDAFDIRSLKIYSYEGLGFTQFSPIIWDEPKEDPVEYAKKIIRLIRIAIHEGKLRYLVENFLPTSMNAGILRIADRENIEYLEKYTPVDDKTVVFISDYSMTRPEVYRWAKRVRERFEPPKDIELLLILPCSAKKPYSRSRSHTLYRSAVKEALGEKMHRVHELIVTSPYGVVPREWEWIAKYDIVVTGHWSEREVRLAGELLADVLEKYPDIPIIAHVEGGYREAVKLAMELSGRDVIFTAKGNSTTSRESLANLTKTLKEFDVRDVDKEYRRYRFYENIRKIFDFYFGLNAGYAVLPERAQVVGSKMLRLIVDNQQTGTFQEGVISVTPWGMQRIYDELHSYWVEIDFDVRGDIFAAGVGSADEKIRPNDWVGVVRDGKVVAVGRAVLSGEEMVKAKRGVAVKVKKKAKEGHHHHHH,soluble
